Assay results reported in patent US20210340245A1 (Janssen / Centocor, published 2021).

How the values were obtained:
recombinant human TNFα [1] = target: T1, recombinant human TNFα (human, UniProt P01375 77-233, 125I label in the receptor-blocking assay); experiment: competition radioligand assay: hybridoma supernatant preincubated with 125I-TNFα (5 ng/ml); binding of TNFα to plate-coated p55-sf2 read as cpm bound
T1 construct: also called huTNFα; tumor necrosis factor alpha

recombinant human TNFα [2] = target: T1, recombinant human TNFα; experiment: cell-based or functional assay
recombinant human TNFα [3] = target: T1, recombinant human TNFα; experiment: inhibition of 125I-TNFα binding to plate-coated p55-sf2
Protocol: 50:1 of p55-sf2 at 0.5 :g/ml in PBS was added to Optiplates to coat the wells during a one-hour incubation at 37° C. Serial dilutions of the eight TNV cell supernatants were prepared in 96-well round-bottom plates using PBS/0.1% BSA as diluent. […] The mixture was preincubated for one hour at RT. […] After 2 hrs at RT, Optiplates were washed three times with PBS-Tween. 100 :l of Microscint-20 was added and the cpm bound determined using the TopCount gamma counter.
The concentrations of the TNV mAbs in their respective cell supernatants were first determined by standard ELISA analysis for human IgG.

Binder | IC50 (read off the curve) (recombinant human TNFα [1]) | neutralizing TNFα bioactivity (recombinant human TNFα [2]) | fold better at blocking TNF binding than TNV118 and TNV14 (recombinant human TNFα [3])
GenTNV148.26.12 (antibody, V domains shown) VH: QVQLVESGGGVVQPGRSLRLSCAASGFIFSSYAMHWVRQAPGNGLEWVAFMSYDGSNKKYADSVKGRFTISRDNPKNTLYLQMNSLRAEDTAVYYCARDRGIAAGGNYYYYGMDVWGQGTTVTVSS VL: EIVLTQSPATLSLSPGERATLSCRASQSVYSYLAWYQQKPGQAPRLLIYDASNRATGIPARFSGSGSGTDFTLTISSLEPEDFAVYYCQQRSNWPPFTFGPGTKVDIKR | ~4 ng/mL | 4 fold | ~4 fold
GenTNV86.14.34 (antibody, human IgG1, V domains shown, Totally human IgG1 kappa, hybridoma-derived, tested in cell supernatant; Variable regions identical to TNV148; also called C417A (cell line code)) VH: QVQLVESGGGVVQPGRSLRLSCAASGFIFSSYAMHWVRQAPGNGLEWVAFMSYDGSNKKYADSVKGRFTISRDNPKNTLYLQMNSLRAEDTAVYYCARDRGIAAGGNYYYYGMDVWGQGTTVTVSS VL: EIVLTQSPATLSLSPGERATLSCRASQSVYSYLAWYQQKPGQAPRLLIYDASNRATGIPARFSGSGSGTDFTLTISSLEPEDFAVYYCQQRSNWPPFTFGPGTKVDIK |  |  | ~4 fold
